Assay results published in PMC8754202 (Journal of Virology, 2021).

B1: HCoV-NL63 receptor-binding domain (residues Gln481-Ile616) (domain or fragment)
chain: QHTDINFTATASFGGSCYVCKPHQVNISLNGNTSVCVRTSHFSIRYIYNRVKSGSPGDSSWHIYLKSGTCPFSFSKLNNFQKFKTICFSTVEVPGSCNFPLEATWHYTSYTIVGALYVTWSEGNSITGVPYPVSGI
B2: SARS-CoV receptor-binding domain (residues Arg306-Leu515) (domain or fragment)
chain: not shown

Legend:
[1] = target: N-terminal peptidase domain of wild-type human ACE2 (residues Met1-Asp615) (human, UniProt Q9BYF1 18-615); test: SPR
[2] = target: N-terminal peptidase domain of human ACE2 [change] variant (residues Met1-Asp615) (human, UniProt Q9BYF1 18-615); test: SPR

Row | Binder | Kd [1] [nM] | Kd [2] [nM]
1 | B1 | 575 | 2610
2 | B2 | 511 | 
